Measured values taken from the DeepSol protein solubility set.

Experiment: soluble on expression in E. coli; label from the status in PepcDB or PDB records

Row | Sequence | soluble on expression in E. coli
1 | MAKWVYKFEEGNASMRNLLGGKGCNLAEMTILGMPIPQGFTVTTEACTEYYNSGKQITQEIQDQIFEAITWLEELNGKKFGDTEDPLLVSVRSGARASMPGMMDTILNLGLNDVAVEGFAKKTGNPRFAYDSYRRFIQMYSDVVMEVPKSHFEKIIDAMKEEKGVHFDTDLTADDLKELAEKFKAVYKEAMNGEEFPQEPKDQLMGAVKAVFRSWDNPEAIVYRRMNDIPGDWGTAVNVQTMVFGNKGETSGTGVAFTRNPDTGEKGIYGRYLINAQGEDVVAGVRTPQPITQLENDMPDCYKQFMDLAMKLEKHFRDMQDMEFTIEEGKLYFLQTRNGKRTAPAALQIACDLVDEGMITEEEAVVRIEAKSLDQLLHPTFNPAALKAGEVIGSALPASPGAAAGKVYFTADEAKAAHEKGERVILVRLETSPEDIEGMHAAEGILTVRGGMTSHAAVVARGMGTCCVSGCGEIKINEEAKTFELGGHTFAEGDYISLDGSTGKIYKGDIETQEASVSGSFERIMVWADKFRTLKVRTNADTPEDTLNAVKLGAEGIGLCRTEHMFFEADRIMKIRKMILSDSVEAREEALNELIPFQKGDFKAMYKALEGRPMTVRYLDPPLHEFVPHTEEEQAELAKNMGLTLAEVKAKVDELHEFNPMMGHRGCRLAVTYPEIAKMQTRAVMEAAIEVKEETGIDIVPEIMIPLVGEKKELKFVKDVVVEVAEQVKKEKGSDMQYHIGTMIEIPRAALTADAIAEEAEFFSFGTNDLTQMTFGFSRDDAGKFLDSYYKAKIYESDPFARLDQTGVGQLVEMAVKKGRQTRPGLKCGICGEHGGDPSSVEFCHKVGLNYVSCSPFRVPIARLAAAQAALNNK | soluble
2 | MGSDKIHHHHHHMEDKLISRYDILVNRYKELVSEKLSRKDFIEYNEILFSAHSCAIEGNSFSVDETRTLKEKGLGMIPKGKTLLEAFEILDHFQAYEYLLKNLDRPLTEELLKETHRLLTEHTLSYKTQYDEIPSNPGEYTTVDMCAGDTIFGDHEQLIKQVPRLLQSTQQVLDSGKIHPMIIAARFHGFYEYLHPFRDGNGRLGRLMSNFILLKKEQPLLIIPGSQREEYITALKYIKKERTDEFLIDFFFRTSIKRMEQEIEEKKNLTENFIRGMEFVRNVKSSNDDISEI | not soluble
3 | MASLCNSIIGWIKNDKEVRLRKRGDTSRRDAVEAGFEPRDTVPRCHSTQSLRDVQRVRSYNNSQFQASDLSLNPNGSIRAACDSTSGSVAPTAVVNPARNHVISHRQQHHTSYEKDLIPHHNIDVDRRRSLQALNGSSALYQLNNGGSPNGVRSQFSPSDLSIHTPVHHVGSRVRVSSVNQICDSNSAPQFSIDQRRSVHNIGNPVRNSFVDGIKTTSTPKNQIAVAPLAHKSRHLSESRDEMRGGAERRGSGGQMNLPAYTNYLIRHSGEERLVDGPVTNASDARIAYLEKRIRELELTQKEQSSHSTPSQSRHSSSKSSHFNGSSNLSTSEQLRLQEMSDELANKDRKVTSLESKLLKAYQRIERLNEEYDGKIKNLMYDSERARDDLTRCVDKIQQLENELDETRAAVQNGDHANEQEYHELRDKIWKQERELQESRTLLTRLREKEAEFERMRSEKGYLELKNENLNKKLEAKKRAVEELERSVSTLRLEQTICQQSCSSGSTPLADEMEIMSDIRPSLARPYTKAHSTLGSHNMSPLSHSKSSGLTKSFSNFALNSSKQRDDITANMSRSIREQNRHITMCRAMVVCLKDTVDRMARGENPDVARLLGVKLNVMSESEMEDDEDHEADASQPFSMMSAESALSKQCGKLADLDKDLDTIRCQLADWHGQTNAEGDGDRDVCRVQ | not soluble
4 | MGSDKIHHHHHHMKILFLSHLDMNLYLFRRPIMEALRKEGHEVIAMCPKGEYFDRFKELGIKAISYEISRESLNPFKELKTLLSIAQKLSELKPDILHTFMLKPNIYGTLASKIASIPYVICSVTGLGSFYIEESFKSRAIRYLIETLSRIVFKIAKKVVFQNEDDRQLFIQKGLVESSKTHLIKGSGINTKLFDPALISPSTLVRYRQELGLEKKHVVLMVARAIAHKGVREYYEAARLLGAFTSDSHLAFLFVGDTDEGNPSCVSSKELYSPHVLWLGHREDILELMALCDIFVLPSYREGIPRTLLEASSLAKPMVTSLAVGCKEVVKEGENGFLVPVGDTKALAQKIHYLVQNPALRLSMGEKARQIAQKEFDVSIIVKAHLELYKEVRGDLQKTL | not soluble
5 | MVEEICHICNDKSTGKHYGAISCDGCKGFFRRSIRKRYHYQCRFEQNCDVTKNKRNACRACRLQKCVKAGMKSNAIQNERDAIGKRKKTTGAEKEDLIDQLVAAETLCQQLRSSVIKNTSSLAPYDCGKVKWNYEDARAATLDDIGKSIHQQLVLFIEWAKSLPQFSFLAQADQAALLKGGAASIIVLGVAYRSICLTVENTICLANDTLLPKEHATQVGDINCVVGRIIDEIVNPMRRLNMDLIEYVALKAILFFNPVVREINDQSPVENARYAFLRSLQRRCTDKALENMEDESMDCRSGKLLLLLPSLQAIAQQLVEDVQLARLFGLVNVDSLMEELILNDMKPSDPQILQTSLASPVNSSVKAEVELEE | soluble
6 | MKDNEIISLFELRDEHAIEALSDKYHPYCYKIAWNLLTNKEDSEECLNDTWFSVWSLIPPKKPSVLSHFCGRITRNLSIDRLRKKYADRRPDLHMADVLGEMDHLSVTYTIEDQLAEKELLEIINDFLGKMNAEDRDIFVRRYWFFDSIAAIAKRHAMSVGSVKMNLYRSRKKLLKVLKKEGKHL | not soluble
7 | MKTVSQLIDMKQKQTKISMVTAYDFPSAKQVEAAGIDMILVGDSLGMTVLGYESTVQVTLADMIHHGRAVRRGAPNTFVVVDMPIGAVGISMTQDLNHALKLYQETNANAIKAEGAHITPFIEKATAIGIPVVAHLGLTPQSVGVMGYKLQGATKEAAEQLILDAKNVEQAGAVALVLEAIPNDLAEEISKHLTIPVIGIGAGKGTDGQVLVYHDMLNYGVEHKAKFVKQFADFSVGVDGLKQYDQEVKSGAFPSEEYTYKKKIMNEVNNNDLEHHHHHH | soluble
8 | MGSDKIHHHHHHMDMNQGGLISLSPHAQVLLRPEGIQFGLDSANAGIFAAPESLIVAIVQVLRGFWQPIAKTTAIEQLTEAGLQPVAARGLIDDLLHHRVLSIVERNLTVAVGGFGPLVAPIKAVLGCAGISVVQAHTIQRCMTLESLLSREVPLIWINSTPSFSHIAQELVEVKTMIPVGLMDNHAIIGPVRIDGRGPCGLCTDLYRSDADPQWPALLKNATAPLTAPAALTYATAARVTRLVEQLSEPRQRVTVTAGLVIRVSSDGELSSEIMSPHSRCPLCWSSRWDCDPLTGTEQAFLADLGQNVLL | not soluble
9 | MILIIYAHPYPHHSHANKRMLEQAGTLENVEIRSLYHLYPDFNIDVAAEQEALSRASLIVWQHPMQWYSVPPLLKLWMDKVLTHGWAYGHGGTALHGKHLLWAVTTGGGENHFAIGSHPGFDVLSQPLQATALYCGLKWLSPFAMHCTFICDDDTLQAQARQYKQRLLAWQEVNHG | not soluble
10 | MNQHLLGNPKLTVTHVNEVKAGINHIVVDSVQYGNQEMIMEKDGTVEMRDGEKLYINIFRPNKDGKFPVVMSADTYGKDNKPKITNMGALWPTLGTIPTSSFTPEESPDPGFWVPNDYVVVKVALRGSDKSKGVLSPWSKREAEDYYEVIEWAANQSWSNGNIGTNGVSYLAVTQWWVASLNPPHLKAMIPWEGLNDMYREVAFHGGIPDTGFYRFWTQGIFARWTDNPNIEDLIQAQQEHPLFDDFWKQRQVPLSQIKTPLLTCASWSTQGLHNRGSFEGFKQAASEEKWLYVHGRKEWESYYARENLERQKSFFDFYLKEENNDWKDTPHVIYEVRDQFYKGEFKSASAFPLPNAEYTPLYLNAENHTLNHAKISSAHVAQYDSEDKQQDVSFKYTFDKDTELVGNMNLKLWVSTKDSDDMDLFAGIKKLDRRGNEVNFPDFNHIENGQVATGWLRVSHRELDQEKSSIAQPWHKHETELKLSQDEIVPVEIELLPSGTLFKQGETLEVVVKGSEIVIGNSTPGMKTRYEHEETVNKGMHMIYTGGKYDSQLIIPIVN | soluble
11 | MLLEIKDLVYKASDRIILDHISLKVDKGESIAIIGPSGSGKSTFQKQICNLFSPTSGELYFKGKPYNDYDPEELRQRISYLMQQSDLFGETIEDNMIFPSLARNDKFDRKRAKQLIKDVGLGHYQLSSEVENMSGGERQRIAIARQLMYTPDILLLDESTSALDVNNKEKIENIIFKLADQGVAIMWITHSDDQSMRHFQKRITIVDGQISNTEELNQHE | soluble
12 | GSHMDSEIQMENLVERKHHRLARSERSGISDRDAKPTASIRDQLHTIVYRYPPTYVLSSEEQDLVWKFRFYLSSHKKALTKFLKCINWKLEDEVTQALWMLANWAPMDVEDALELLSPTFTHPQVRKYAVSRLAQAPDEDLLLYLLQLVQALKYEDPRHIVHLHGCIFPERDVVRSILDDNGSLLDQSSLSDLSATSSGLHASVIPANQRAASVLAAIKSDKSVSPGSAGGSGSGGQGSVALPNPSAPATPGSSSLPCDSNSNALMLAEGISFGSVPANLCTFLIQRACTNATLANYFYWYLSIEVEEVESVRKQDERAHDMYAMVLKMFLKVLENGNFNLRGIFYNLRKQRRFIDELVKLVKLVAKEPGNRNKKTEKFQKLLAEQDMFKVNFTNFEPIPFPLDPEIYITKIVPMRTSLFKSALMPAKLTFVTSIAHHEYAAIFKHGDDLRQDQLILQMITLMDKLLRRENLDLKLTPYKVLATSSKHGFLQYVDSCTVAEVLAREGNIHNFFRKHHPCDNGPYGISAEVMDTYIKSCAGYCVITYLLGVGDRHLDNLLLTTNGKLFHIDFGYILGRDPKPMPPPMKLSKEMVEAMGGISSEHHHEFRKQCYTAYLHLRRHANVMLNLFSLMVDATVPDIALEPDKAVKKVEENLQLGLTDEEAVQHLQSLLDVSITAVMPALVEQIHRFTQYWRK | soluble
13 | MGSDKIHHHHHHVLIWWRGKFRRADEISLDFSLFEKSLQGAVYETLRTYSRAPFAAYKHYTRLKRSADFFNLPLSLSFDEFTKVLKAGADEFKQEVRIKVYLFPDSGEVLFVFSPLNIPDLETGVEVKISNVRRIPDLSTPPALKITGRTDIVLARREIVDCYDVILLGLNGQVCEGSFSNVFLVKEGKLITPSLDSGILDGITRENVIKLAKSLEIPVEERVVWVWELFEADEMFLTHTSAGVVPVRRLNEHSFFEEEPGPVTATLMENFEPFVLNLEENWVGI | soluble
14 | MAHHHHHHMSLVKMKERDEKAREEAEKLLNEVIEQSQGKMYKPTAAAGVGVNTQPHNRRMRVETLRSTPDYIFKIILVGDSYVGKTRFLKNLVGAIGFGDQCVTTLSVDVVNHYVIVDGKTVQVLMYDTCGQERFRAMTAQFYRDAHGAIMVYDTTQIGSFDNIEVWFSQLNSFGCENTSKILVGNKCDLPERRAVEIGRARALADKLGVPFIETSAMTGAGVAVAVEALVRMIMRQQPVPLASQWAGSKSGHRNAVNLERPRRENGTGRRSERSQRNDNCCCQ | soluble
15 | SLQSYQSVDSIRAAALATVGPDAEAEATLDPGLRMPGCPIALQAKPTGTNTVEVACPQPAGWRLFVPLKVRRNQDVLVLRRGISAGETISLADISIEKRDAARIVGAVLADPVAAVGKTARRILPAGSLLSANDLVSQRLVRRGDTVPLVSRNGGLEVRMSGRALSDAGENERVSVENSSSRRVVQGIVEASGTVVVSR | soluble
16 | MSLSKNVTYEGIYVENINVSNLNEKDLKEKLNEHYSDLLNNFKITFNYKDNFNETFSAKDLGFFFDINDLSNQVFSFGKNSNIFSNTIERLKLKSNPKYFQFKPESNSEVLSEKLSEISNKINKEKVEPTISFSNDSISATKEQIGYKLDLEKLTSEIVNDLNNSHDSLNCTINIPVEEIKPKLTQETVNNMVILGSYTTKLPSLTGGRTKNISNYLSKLNGTILMPGDIFSADKEGEDRTESNGYTYAPGYIGNKVVDILAGGICQGVTTLYNSVLYADLKIVERAPHSLPVTYAPIGRDATMASGVIDFKFQNNMNNPVIVQTYITSSGQVKSNIWGIKEDPGKEIVISVDQHGPKSSTTYKETYENGVLVKKEVLSKDKYNEGHHHHHH | soluble
